From publication PMC12847820, “Molecular characterisation of the Bacillus subtilis SpbK antiphage defence system” (Nature Communications, 2025) come the findings set out here.

The target in data set [1] is MBP-SpbK (full-length SpbK as a maltose-binding protein fusion) (Bacillus subtilis). As to the kind of experiment: mass photometry + SEC-MALS; MBP-SpbK wild type and mutants in solution; 10 mM HEPES pH 7.5, 150 mM NaCl; Superdex 200 5/150 Increase for SEC-MALS; self-association.
For data set [2], the target named is MBP-SpbK D158R (Bacillus subtilis). The description is as above.
Data set [3] deals with MBP-SpbK G194R (Bacillus subtilis). The data set is described as above.
Data set [4] concerns the molecule itself. Kind of data set: mass photometry; YonE in solution; 10 mM HEPES pH 7.5, 150 mM NaCl; self-association.

In the case of “MBP-SpbK (full-length SpbK as a maltose-binding protein fusion) (natural protein)”, in data set [1], the stoichiometry N amounted to 2.
As for MBP-SpbK D158R (natural protein), the stoichiometry N in data set [2] was 2.
With MBP-SpbK G194R (natural protein), the stoichiometry N in data set [3] turned out to be 2.

B1: YonE (residues 46-506), portal protein of phage SPβ (natural protein, Bacillus subtilis phage SPβ, UniProt O31953 46-506, looked up)
chain: EAEQLKNYFSNPDEFQEEIEDLAQYFYISTAEIHQLFELIEALPTLNYKIDSFNKVKSSDKHISLLNKSLHKVKHKRLTRDLLKQVATAGTLVGIWLGDAKSPYPFIFDEIKYVFPSFRRNGDWVCVVDMELFTKYKDDQRNELLKSLSPYIKQSDYENFMKDREKYRFKELPQERTFPLRTGTLKRNQGLGTSWVTPGLYDVLHKKKLKDVERSIANKIINAVAVLTIGTDKGNGEYTNMKLPKAVKQKIHGGVKTALEKNQKDGVTVVSIPDFADINFPDVKADGLDGAKFDHINSDIQSAYGLSGSLLNGDGGNYATSSLNLDTFYKRIGVLMEDIEQEVYQKLFNLVLPAAQKDNYYMNYDKDKPLTLKEKMDILIKLNDKGWSIKHVVDNLAGVSWESYLEQTLYETEELKLQEKIRPYQTSYTFTGNEVGRPNEGNKNNDNTVKSATSNGNDNPI
notes: YonE, product of the SPβ gene yonE, portal protein; truncated construct lacking the first 45 residues, residues 46-506; Dodecamer by mass photometry and cryo-EM; printed theoretical mass of the dodecamer 665 kDa; also called wild-type YonE; YonE dodecamer; source: E. coli BL21 (DE3), autoinduction, purified (IMAC, SEC); copies: 12
On to B1, for which the “stoichiometry N” value in data set [4] is 12.
